Reference: patent US20180036441A1 (Dana-Farber, published 2018)

T1: MUC1-SEA-His protein (UniProt P15941 1039-1148, limits assumed)
T1 construct: domain: SEA; Recombinant antigen used for ELISA coating and as Biacore analyte; also called MUC-SEA-His; antigen protein; not shown: His tag
T1 sequence (looked up): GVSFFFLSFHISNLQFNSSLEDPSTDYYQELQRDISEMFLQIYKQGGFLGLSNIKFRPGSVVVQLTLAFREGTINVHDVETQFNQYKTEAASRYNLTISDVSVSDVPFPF


Key:
[1] = target: T1, MUC1-SEA-His protein; test: SPR Biacore T200, antibody captured, antigen as analyte
Experimental: Antibody affinity was determined using a Surface Plasmon Resonance (SPR) biosensor, Biacore T200 (GE Healthcare). Antibody was immobilized on the sensor chip through Fc capture method. Antigen protein was used as the analyte. The data of dissociation (kd) and association (ka) rate constants were obtained using Biacore T200 evaluation software. The apparent equilibrium dissociation constants (KD) were calculated from the ratio of kd over ka. For affinity ranking, twenty-five humanized antibodies plus chimericantibody were injected and captured on sensor chip individually. The antibodies were ranked based on their dissociation rates (kd).

[2] = target: T2, MUC1 on HCT116/MUC1 cells (UniProt P15941 24-1255, limits assumed); test: FACS titration, HCT116/MUC1 cells, antibody at 3.906 nM
T2 construct: whole, on cells; also called MUC1 overexpressed cell line
T2 sequence (P15941 24-1255 limits assumed): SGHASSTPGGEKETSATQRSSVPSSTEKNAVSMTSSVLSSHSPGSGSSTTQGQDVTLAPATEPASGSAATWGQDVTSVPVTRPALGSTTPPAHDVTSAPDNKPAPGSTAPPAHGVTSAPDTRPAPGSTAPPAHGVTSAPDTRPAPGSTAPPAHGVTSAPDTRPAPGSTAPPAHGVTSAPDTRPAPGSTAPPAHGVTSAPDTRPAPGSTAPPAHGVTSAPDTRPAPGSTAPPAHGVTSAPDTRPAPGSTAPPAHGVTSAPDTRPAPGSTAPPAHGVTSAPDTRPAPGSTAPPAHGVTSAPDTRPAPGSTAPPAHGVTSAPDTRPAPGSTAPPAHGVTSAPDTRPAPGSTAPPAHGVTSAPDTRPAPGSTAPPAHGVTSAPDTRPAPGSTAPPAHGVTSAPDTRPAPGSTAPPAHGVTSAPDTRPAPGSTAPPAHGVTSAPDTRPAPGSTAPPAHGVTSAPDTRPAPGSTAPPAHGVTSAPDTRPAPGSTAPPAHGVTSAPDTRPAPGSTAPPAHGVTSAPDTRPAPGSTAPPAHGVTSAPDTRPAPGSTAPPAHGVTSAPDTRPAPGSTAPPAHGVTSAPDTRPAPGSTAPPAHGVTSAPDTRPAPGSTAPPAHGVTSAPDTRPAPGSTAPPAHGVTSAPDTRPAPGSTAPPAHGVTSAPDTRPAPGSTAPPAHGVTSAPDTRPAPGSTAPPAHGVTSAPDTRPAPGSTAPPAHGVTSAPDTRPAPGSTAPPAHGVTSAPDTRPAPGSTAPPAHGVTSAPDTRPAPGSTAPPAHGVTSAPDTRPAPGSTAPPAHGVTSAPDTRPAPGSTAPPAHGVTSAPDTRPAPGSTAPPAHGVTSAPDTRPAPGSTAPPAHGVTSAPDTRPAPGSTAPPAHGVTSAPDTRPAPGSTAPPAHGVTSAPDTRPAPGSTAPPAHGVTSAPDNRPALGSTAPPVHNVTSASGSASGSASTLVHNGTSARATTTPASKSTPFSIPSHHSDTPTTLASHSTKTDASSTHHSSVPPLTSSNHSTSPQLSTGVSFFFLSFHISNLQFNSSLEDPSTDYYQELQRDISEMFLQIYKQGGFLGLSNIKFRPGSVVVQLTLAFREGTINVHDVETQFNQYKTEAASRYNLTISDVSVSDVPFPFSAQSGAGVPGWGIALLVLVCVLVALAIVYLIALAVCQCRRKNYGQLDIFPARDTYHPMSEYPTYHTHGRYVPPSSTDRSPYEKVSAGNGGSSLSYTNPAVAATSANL
Experimental: (§1) To assess cell binding, 2×10⁵ HCT116/MUC1 cells per well were washed with PBS twice and incubated in 200 μl of serial dilutions of chimeric or humanized antibodies for 1 hour at room temperature. After washing 3 times with PBS, secondary antibody (2 μg/ml Alexa Flour®488 goat anti-human IgG) was added to cells and incubated for 30 minutes at room temperature. After washing with PBS, cells were analyzed by using FACSCalibur (BD Bioscience, San Jose, Calif.) and Flowjo software.

[3] = target: T2, MUC1 on HCT116/MUC1 cells; test: FACS titration, HCT116/MUC1 cells, antibody at 7.812 nM
Experimental: as §1

[4] = target: T2, MUC1 on HCT116/MUC1 cells; test: FACS titration, HCT116/MUC1 cells, antibody at 15.625 nM
Experimental: as §1

[5] = target: T2, MUC1 on HCT116/MUC1 cells; test: FACS titration, HCT116/MUC1 cells, antibody at 0.488 nM
Experimental: as §1

[6] = target: T2, MUC1 on HCT116/MUC1 cells; test: FACS titration, HCT116/MUC1 cells, antibody at 31.25 nM
Experimental: as §1

[7] = target: T2, MUC1 on HCT116/MUC1 cells; test: FACS titration, HCT116/MUC1 cells, antibody at 1.953 nM
Experimental: as §1

[8] = target: T2, MUC1 on HCT116/MUC1 cells; test: FACS titration, HCT116/MUC1 cells, antibody at 500 nM
Experimental: as §1

[9] = target: T2, MUC1 on HCT116/MUC1 cells; test: FACS titration, HCT116/MUC1 cells, antibody at 250 nM
Experimental: as §1

[10] = target: T2, MUC1 on HCT116/MUC1 cells; test: FACS titration, HCT116/MUC1 cells, antibody at 62.5 nM
Experimental: as §1

[11] = target: T2, MUC1 on HCT116/MUC1 cells; test: FACS titration, HCT116/MUC1 cells, antibody at 125 nM
Experimental: as §1

[12] = target: T2, MUC1 on HCT116/MUC1 cells; test: FACS titration on HCT116/MUC1 cells
Experimental: as §1

[13] = target: T2, MUC1 on HCT116/MUC1 cells; test: FACS titration, HCT116/MUC1 cells, antibody at 0.977 nM
Experimental: as §1

[14] = target: T2, MUC1 on HCT116/MUC1 cells; test: FACS titration, HCT116/MUC1 cells, antibody at 0.244 nM
Experimental: as §1

Binder	koff [1]	further results
VH2 + VL5 (antibody, V domains shown, Humanized IgG expressed in HEK293; also called humanized antibody VH2+VL5) VH: QVQLVQSGAEVKKPGASVKVSCKASGYAFSNFWMNWVRQAPGQGLEWMGQIYPGDGDTNYNGKFKGRVTMTRDTSTSTVYMELSSLRSEDTAVYYCARSYYRSAWFAYWGQGTLVTVSS VL: DIVMTQSPSLLSASTGDRVTISCRASQSIGTSIHWYQQKPGKAPELLIYYASESISGVPSRFSGSGSGTDFTLTISCLQSEDFATYYCQQSNNWPLTFGQGTKVEIK	0.0193 s⁻¹	–
VH4 + VL5 (antibody, V domains shown, Humanized IgG expressed in HEK293; also called humanized antibody VH4+VL5) VH: QVQLVQSGAEVKKPGATVKISCKVSGYAFSNFWMNWVQQAPGKGLEWMGQIYPGDGDTNYNGKFKGRVTITADTSTDTAYMELSSLRSEDTAVYYCARSYYRSAWFAYWGQGTLVTVSR VL: DIVMTQSPSLLSASTGDRVTISCRASQSIGTSIHWYQQKPGKAPELLIYYASESISGVPSRFSGSGSGTDFTLTISCLQSEDFATYYCQQSNNWPLTFGQGTKVEIK	0.0578 s⁻¹	–
VH1 + VL5 (antibody, V domains shown, Humanized IgG expressed in HEK293; also called humanized antibody VH1+VL5) VH: QVQLVQSGAEVKKPGSSVKVSCKASGYAFSNFWMNWVRQAPGQGLEWMGQIYPGDGDTNYNGKFKGRVTITADKSTSTAYMELSSLRSEDTAVYYCARSYYRSAWFAYWGQGTLVTVSS VL: DIVMTQSPSLLSASTGDRVTISCRASQSIGTSIHWYQQKPGKAPELLIYYASESISGVPSRFSGSGSGTDFTLTISCLQSEDFATYYCQQSNNWPLTFGQGTKVEIK	0.0302 s⁻¹	–
VH3 + VL5 (antibody, V domains shown, Humanized IgG expressed in HEK293; also called humanized antibody VH3+VL5) VH: QVQLVQSGAEVKKPGASVKVSCKASGYAFSNFWMNWVRQAPGQGLEWMGQIYPGDGDTNYNGKFKGRVTMTRDTSISTAYMELSRLRSDDTAVYYCARSYYRSAWFAYWGQGTLVTVSS VL: DIVMTQSPSLLSASTGDRVTISCRASQSIGTSIHWYQQKPGKAPELLIYYASESISGVPSRFSGSGSGTDFTLTISCLQSEDFATYYCQQSNNWPLTFGQGTKVEIK	0.023 s⁻¹	–
VH4 + VL4 (antibody, V domains shown, Humanized IgG expressed in HEK293; also called humanized antibody VH4+VL4) VH: QVQLVQSGAEVKKPGATVKISCKVSGYAFSNFWMNWVQQAPGKGLEWMGQIYPGDGDTNYNGKFKGRVTITADTSTDTAYMELSSLRSEDTAVYYCARSYYRSAWFAYWGQGTLVTVSR VL: AIQLTQSPSSLSASVGDRVTITCRASQSIGTSIHWYQQKPGKAPKLLIYYASESISGVPSRFSGSGSGTDFTLTISSLQPEDFATYYCQQSNNWPLTFGGGTKVEIK	0.0243 s⁻¹	–
VH5 + VL3 (antibody, V domains shown, Humanized IgG expressed in HEK293; also called humanized antibody VH5+VL3) VH: EVQLVQSGAEVKKPGESLKISCKGSGYAFSNFWMNWVRQMPGKGLEWMGQIYPGDGDTNYNGKFKGQVTISADKSISTAYLQWSSLKASDTAMYYCARSYYRSAWFAYWGQGTLVTVSL VL: EIVLTQSPATLSLSPGERATLSCRASQSIGTSIHWYQQKPGQAPRLLIYYASESISGIPARFSGSGSGTDFTLTISSLEPEDFAVYYCQQSNNWPLTFGGGTKVEIK	0.0164 s⁻¹	geometric mean [2]: 15.5; geometric mean [3]: 31; geometric mean [4]: 61.5; geometric mean [5]: 3.27; geometric mean [6]: 110; geometric mean [7]: 8.05; geometric mean [8]: 170; geometric mean [9]: 167; geometric mean [10]: 141; geometric mean [11]: 126; EC50 [12]: 21.9 nM; geometric mean [13]: 4.13; geometric mean [14]: 2.82
VH4 + VL2 (antibody, V domains shown, Humanized IgG expressed in HEK293; also called humanized antibody VH4+VL2) VH: QVQLVQSGAEVKKPGATVKISCKVSGYAFSNFWMNWVQQAPGKGLEWMGQIYPGDGDTNYNGKFKGRVTITADTSTDTAYMELSSLRSEDTAVYYCARSYYRSAWFAYWGQGTLVTVSR VL: EIVMTQSPATLSVSPGERATLSCRASQSIGTSIHWYQQKPGQAPRLLIYYASESISGIPARFSGSGSGTEFTLTISSLQSEDFAVYYCQQSNNWPLTFGGGTKVEIK	0.0315 s⁻¹	–
VH1 + VL3 (antibody, V domains shown, Humanized IgG expressed in HEK293; also called humanized antibody VH1+VL3) VH: QVQLVQSGAEVKKPGSSVKVSCKASGYAFSNFWMNWVRQAPGQGLEWMGQIYPGDGDTNYNGKFKGRVTITADKSTSTAYMELSSLRSEDTAVYYCARSYYRSAWFAYWGQGTLVTVSS VL: EIVLTQSPATLSLSPGERATLSCRASQSIGTSIHWYQQKPGQAPRLLIYYASESISGIPARFSGSGSGTDFTLTISSLEPEDFAVYYCQQSNNWPLTFGGGTKVEIK	0.0225 s⁻¹	–
VH4 + VL3 (antibody, V domains shown, Humanized IgG expressed in HEK293; also called humanized antibody VH4+VL3) VH: QVQLVQSGAEVKKPGATVKISCKVSGYAFSNFWMNWVQQAPGKGLEWMGQIYPGDGDTNYNGKFKGRVTITADTSTDTAYMELSSLRSEDTAVYYCARSYYRSAWFAYWGQGTLVTVSR VL: EIVLTQSPATLSLSPGERATLSCRASQSIGTSIHWYQQKPGQAPRLLIYYASESISGIPARFSGSGSGTDFTLTISSLEPEDFAVYYCQQSNNWPLTFGGGTKVEIK	0.0237 s⁻¹	–
VH5 + VL5 (antibody, V domains shown, Humanized IgG expressed in HEK293; also called humanized antibody VH5+VL5) VH: EVQLVQSGAEVKKPGESLKISCKGSGYAFSNFWMNWVRQMPGKGLEWMGQIYPGDGDTNYNGKFKGQVTISADKSISTAYLQWSSLKASDTAMYYCARSYYRSAWFAYWGQGTLVTVSL VL: DIVMTQSPSLLSASTGDRVTISCRASQSIGTSIHWYQQKPGKAPELLIYYASESISGVPSRFSGSGSGTDFTLTISCLQSEDFATYYCQQSNNWPLTFGQGTKVEIK	0.0207 s⁻¹	–
VH1 + VL2 (antibody, V domains shown, Humanized IgG expressed in HEK293; also called humanized antibody VH1+VL2) VH: QVQLVQSGAEVKKPGSSVKVSCKASGYAFSNFWMNWVRQAPGQGLEWMGQIYPGDGDTNYNGKFKGRVTITADKSTSTAYMELSSLRSEDTAVYYCARSYYRSAWFAYWGQGTLVTVSS VL: EIVMTQSPATLSVSPGERATLSCRASQSIGTSIHWYQQKPGQAPRLLIYYASESISGIPARFSGSGSGTEFTLTISSLQSEDFAVYYCQQSNNWPLTFGGGTKVEIK	0.0294 s⁻¹	–
VH3 + VL2 (antibody, V domains shown, Humanized IgG expressed in HEK293; also called humanized antibody VH3+VL2) VH: QVQLVQSGAEVKKPGASVKVSCKASGYAFSNFWMNWVRQAPGQGLEWMGQIYPGDGDTNYNGKFKGRVTMTRDTSISTAYMELSRLRSDDTAVYYCARSYYRSAWFAYWGQGTLVTVSS VL: EIVMTQSPATLSVSPGERATLSCRASQSIGTSIHWYQQKPGQAPRLLIYYASESISGIPARFSGSGSGTEFTLTISSLQSEDFAVYYCQQSNNWPLTFGGGTKVEIK	0.0195 s⁻¹	–
VH5 + VL2 (antibody, V domains shown, Humanized IgG expressed in HEK293; also called humanized antibody VH5+VL2) VH: EVQLVQSGAEVKKPGESLKISCKGSGYAFSNFWMNWVRQMPGKGLEWMGQIYPGDGDTNYNGKFKGQVTISADKSISTAYLQWSSLKASDTAMYYCARSYYRSAWFAYWGQGTLVTVSL VL: EIVMTQSPATLSVSPGERATLSCRASQSIGTSIHWYQQKPGQAPRLLIYYASESISGIPARFSGSGSGTEFTLTISSLQSEDFAVYYCQQSNNWPLTFGGGTKVEIK	0.0228 s⁻¹	–
VH2 + VL2 (antibody, V domains shown, Humanized IgG expressed in HEK293; also called humanized antibody VH2+VL2) VH: QVQLVQSGAEVKKPGASVKVSCKASGYAFSNFWMNWVRQAPGQGLEWMGQIYPGDGDTNYNGKFKGRVTMTRDTSTSTVYMELSSLRSEDTAVYYCARSYYRSAWFAYWGQGTLVTVSS VL: EIVMTQSPATLSVSPGERATLSCRASQSIGTSIHWYQQKPGQAPRLLIYYASESISGIPARFSGSGSGTEFTLTISSLQSEDFAVYYCQQSNNWPLTFGGGTKVEIK	0.0166 s⁻¹	–
